Experiments:
Assay in all cases: cell_activity
[1] = tested on: B2M_TALEN(L)-FokI M49 (Flavobacterium okeanokoites (FokI domain)); settings: SSA reporter HEK293T, pair; value in figure only
[2] = tested on: B2M_TALEN(L)-FokI M47 (Flavobacterium okeanokoites (FokI domain)); settings: SSA reporter HEK293T, pair; value in figure only
[3] = tested on: B2M_TALEN(L)-FokI M50 (Flavobacterium okeanokoites (FokI domain)); settings: SSA reporter HEK293T, pair; value in figure only
[4] = tested on: B2M_TALEN(L)-FokI M48 (Flavobacterium okeanokoites (FokI domain)); settings: SSA reporter HEK293T, pair; value in figure only
[5] = tested on: B2M_PPR(R)-FokI M50 (Flavobacterium okeanokoites (FokI domain)); settings: Fn reporter HEK293T, paired with B2M_PPR(L)
[6] = tested on: GFP_TALEN(R)-FokI M49 (Flavobacterium okeanokoites (FokI domain)); settings: SSA reporter HEK293T, pair; value in figure only
[7] = tested on: GFP_TALEN(R)-FokI M50 (Flavobacterium okeanokoites (FokI domain)); settings: SSA reporter HEK293T, pair; value in figure only
[8] = tested on: GFP_TALEN(R)-FokI M48 (Flavobacterium okeanokoites (FokI domain)); settings: SSA reporter HEK293T, pair; value in figure only
[9] = tested on: GFP_TALEN(R)-FokI M47 (Flavobacterium okeanokoites (FokI domain)); settings: SSA reporter HEK293T, pair; value in figure only
[10] = tested on: GFP_TALEN(L)-FokI M48 (Flavobacterium okeanokoites (FokI domain)); settings: SSA reporter HEK293T, pair; value in figure only
[11] = tested on: GFP_TALEN(L)-FokI M49 (Flavobacterium okeanokoites (FokI domain)); settings: SSA reporter HEK293T, pair; value in figure only
[12] = tested on: GFP_TALEN(L)-FokI M50 (Flavobacterium okeanokoites (FokI domain)); settings: SSA reporter HEK293T, pair; value in figure only
[13] = tested on: GFP_TALEN(L)-FokI M47 (Flavobacterium okeanokoites (FokI domain)); settings: SSA reporter HEK293T, pair; value in figure only
[14] = tested on: GFP_PPR(R)-FokI M50 (Flavobacterium okeanokoites (FokI domain)); settings: Fn reporter HEK293T, paired with GFP_PPR(L)
[15] = tested on: B2M_PPR(L)-FokI M50 (Flavobacterium okeanokoites (FokI domain)); settings: Fn reporter HEK293T, paired with B2M_PPR(R)
[16] = tested on: B2M_TALEN(R)-FokI M47 (Flavobacterium okeanokoites (FokI domain)); settings: SSA reporter HEK293T, pair; value in figure only
[17] = tested on: B2M_TALEN(R)-FokI M50 (Flavobacterium okeanokoites (FokI domain)); settings: SSA reporter HEK293T, pair; value in figure only
[18] = tested on: B2M_TALEN(R)-FokI M48 (Flavobacterium okeanokoites (FokI domain)); settings: SSA reporter HEK293T, pair; value in figure only
[19] = tested on: B2M_TALEN(R)-FokI M49 (Flavobacterium okeanokoites (FokI domain)); settings: SSA reporter HEK293T, pair; value in figure only
[20] = tested on: TALEN-A-FokI M50 (MBP fusion) (Flavobacterium okeanokoites (FokI domain)); settings: E. coli B2P, 0.1 mM IPTG 15 min 37 C; 24% in second experiment (p75)
[21] = tested on: TALEN-A-FokI M47 (MBP fusion) (Flavobacterium okeanokoites (FokI domain)); settings: E. coli B2P, 0.1 mM IPTG 15 min 37 C
[22] = tested on: TALEN-A-FokI M49 (MBP fusion) (Flavobacterium okeanokoites (FokI domain)); settings: E. coli B2P, 0.1 mM IPTG 15 min 37 C
[23] = tested on: TALEN-A-FokI M50(G473) (MBP fusion) R473G (Flavobacterium okeanokoites (FokI domain)); settings: E. coli B2P; M50 24% in same experiment
[24] = tested on: TALEN-A-FokI wild-type (MBP fusion) (Flavobacterium okeanokoites (FokI domain)); settings: E. coli B2P, 0.1 mM IPTG 15 min 37 C
[25] = tested on: TALEN-A-FokI M48 (MBP fusion) (Flavobacterium okeanokoites (FokI domain)); settings: E. coli B2P, 0.1 mM IPTG 15 min 37 C
[26] = tested on: GFP_PPR(L)-FokI M50 (Flavobacterium okeanokoites (FokI domain)); settings: Fn reporter HEK293T, paired with GFP_PPR(R)

How did the activity (fold vs WT FokI) [1] turn out when “CCAAAGATTCAGGT (double strand) [B2M_TALEN(L) half-site]” was run?
Its activity (fold vs WT FokI) is greater than 1.

And the activity (fold vs WT FokI) [2]?
The activity (fold vs WT FokI) was greater than 1.

And the activity (fold vs WT FokI) [3]?
The activity (fold vs WT FokI) was greater than 1.

What about the activity (fold vs WT FokI) [4] of the same sequence?
Its activity (fold vs WT FokI) is greater than 1.

“AGCAATTCAGGAAA (double strand) [B2M_PPR(R) half-site]” was tested. Which activity (fold vs WT FokI) [5] did it give?
Its activity (fold vs WT FokI) is 2.2.

“TTGCCGTAGGTGGCA (double strand) [GFP_TALEN(R) half-site]” was tested. Which activity (fold vs WT FokI) [6] did it give?
Its activity (fold vs WT FokI) is greater than 1.

What about the activity (fold vs WT FokI) [7] of the same sequence?
Its activity (fold vs WT FokI) is greater than 1.

What about the activity (fold vs WT FokI) [8] of the same sequence?
Its activity (fold vs WT FokI) is greater than 1.

What about the activity (fold vs WT FokI) [9] of the same sequence?
The activity (fold vs WT FokI) was greater than 1.

For “CAGCGTGTCCGGCGA (double strand) [GFP_TALEN(L) half-site]”, which activity (fold vs WT FokI) [10] is on record?
Its activity (fold vs WT FokI) is greater than 1.

What about the activity (fold vs WT FokI) [11] of the same sequence?
Its activity (fold vs WT FokI) is greater than 1.

And the activity (fold vs WT FokI) [12]?
Its activity (fold vs WT FokI) is greater than 1.

And the activity (fold vs WT FokI) [13]?
Its activity (fold vs WT FokI) is greater than 1.

For “CCTGGACGTAGCCTT (double strand) [GFP_PPR(R) half-site]”, which activity (fold vs WT FokI) [14] is on record?
The activity (fold vs WT FokI) was 1.5.

For “AATGGAAAGTCAAA (double strand) [B2M_PPR(L) half-site]”, which activity (fold vs WT FokI) [15] is on record?
The activity (fold vs WT FokI) was 2.2.

For “GACTTTCCATTCTC (double strand) [B2M_TALEN(R) half-site]”, which activity (fold vs WT FokI) [16] is on record?
Its activity (fold vs WT FokI) is greater than 1.

And the activity (fold vs WT FokI) [17]?
The activity (fold vs WT FokI) was greater than 1.

And the activity (fold vs WT FokI) [18]?
Its activity (fold vs WT FokI) is greater than 1.

What about the activity (fold vs WT FokI) [19] of the same sequence?
The activity (fold vs WT FokI) was greater than 1.

How did the activity [20] turn out when “AGCCGAAATCATCGCAGCCGCTGCCGCGAGCTCCTGCGATGATTTCGGCT (double strand) [TALEN-A target site (inverted repeat)]” was run?
The activity was 28 % survival.

What about the activity [21] of the same sequence?
Its activity is 29 % survival.

And the activity [22]?
The activity was 45 % survival.

What about the activity [23] of the same sequence?
The activity was less than 0.05 % survival.

What about the activity [24] of the same sequence?
Its activity is 0.0001 % survival.

And the activity [25]?
Its activity is 37 % survival.

How did the activity (fold vs WT FokI) [26] turn out when “ACGACTTCTTCAAGT (double strand) [GFP_PPR(L) half-site]” was run?
Its activity (fold vs WT FokI) is 1.5.

Source: US20230416709
